Assay results from patent US20240093255A1, “BIOSYNTHETIC PRODUCTION OF 2-FUCOSYLLACTOSE” (Conagen Inc., priority 2020, published 2024).

Columns and labels:
[1] = GDP-mannose-3,5-epimerase candidate screening (GDP-D-mannose to GDP-L-galactose); format: biochemical; conditions: enzymatic screening of candidates
Description: The reaction conditions were: 2 mM GDP-D-mannose, 1 mM NAD^+, 50 mM Tris-HCl, pH 8.0 and with or without 0.33 mg/mL At GME. The reactions were incubated at room temperature for 16 hours, quenched by heating at 99° C. for 10 mins, and analyzed using HPLC.

[2] = FutC candidate activity in vitro using the de novo synthesis pathway (2′-FL by HPLC); format: biochemical; conditions: 0.2 mg/mL fucosyltransferase, 1 mM GDP-mannose, 80 mM lactose, room temperature, 16 hours
Description: The final step in the novel path to 2′-FL requires an α-1,2-fucosyltransferase. Various FutC candidates were screened for soluble expression in E. coli and fucosyltransferase activity. The candidate enzymes show different solubilities and enzymatic activity for 2′-FL synthesis. For the candidates that have highly soluble expression, their activity was tested in vitro using the de novo synthesis pathway. The reaction conditions were: 50 mM Tris-HCl pH 8.0, 2 mM NADPH, 0.1 mM NADP^+, 1 mM GDP-mannose, 80 mM lactose, 0.9 mg/mL Ec Gmd (SEQ 11), 0.2 mg/mL Ec WcaG (SEQ ID NO: 7) and 0.2 mg/mL of the fucosyltransferase candidates. The reactions were incubated at room temperature for 16 hours. The reactions were quenched by heating at 99° C. for 10 minutes, and then analyzed by HPLC.

[3] = FKP activity towards L-galactose (GDP-L-galactose production); format: biochemical
Description: FKP naturally catalyzes the conversion of L-fucose into GDP-L-fucose. It has been reported that FKP also could generate GDP-L-galactose from L-galactose (Ohashi et al. 2017). FKP was cloned into pET21, expressed and purified as described in Example 1. The activity of FKP towards L-galactose was assayed under the following conditions: 2 mM L-galactose, 2 mM ATP, 2 mM GTP, 4 mM MgCl2, 50 mM Tris-HCl, pH 7.5 and with or without 0.25 g/L FKP. The samples were incubated at room temperature overnight, and quenched by heating at 99° C. for 10 minutes, and analyzed using LC-MS.
Further work was conducted to optimize the FKP reaction with L-galactose as the substrate, by varying reaction temperature, substrate concentrations, and adding an ATP/GTP regeneration system. The reaction conditions were: 50 mM Tris-HCl pH 7.5, 5 mM MgCl2, 5 mM L-galactose, 2 mM ATP, 2 mM GTP, 10 mM PEP, 1 U pyruvate kinase, and with or without 0.8 mg/mL FKP. The reaction was incubated at 37° C. for 44 hours. The reaction was quenched by heating at 99° C. for 10 minutes. The samples were analyzed using HPLC (FIG. 5).

[4] = Dehydratase screening for GDP-L-fucose synthesis from GDP-L-galactose; format: biochemical
Description: Four enzymes were screened: At Gmd (SEQ ID NO: 5), Hs Gmd (SEQ ID NO: 9), Ec Gmd (SEQ ID NO: 11) and Yp DmhA (SEQ ID NO: 13), while Ec WcaG (SEQ ID NO: 7) is known to be a reductase. […] The reactions were incubated for 16 hours at 37° C., and then quenched by heating at 99° C. for 10 minutes. Samples were analyzed by both HPLC and LC-MS methods.

[5] = GDP-L-fucose inhibition assay of GMD enzymes (GDP-4-keto-6-deoxymannose detection); format: biochemical; conditions: 350 μM GDP-L-fucose; 1 mM GDP-mannose, 0.5 mg/mL GMD
Description: To test for inhibition, the mutants were expressed and purified as described in Example 7, and assayed at a range of GDP-L-fucose concentrations. The assay conditions were as follows: 50 mM Tris pH 7.5, 1 mM GDP-mannose, 0.5 mM NADP^+, 0.5 mg/mL dehydratase (GMD) enzyme, and 0 μM, 70 μM or 350 μM GDP-L-fucose. The reactions were quenched at 99° C. for 10 minutes, and the enzymes' respective activities were analyzed using the nucleotide sugar LC-MS method by GDP-4-keto-6-deoxymannose detection.

[6] = expressed in E. coli
Text: One of the major limitations for 2′-FL production is FutC activity. After screening various FutC candidates as described in Example 5, the inventors sought to identify mutant FutC candidates with even higher activity and improved solubility using bioinformatics. Based on ancestral sequence reconstruction (ASR) analysis, a series of ASR mutants were designed (Table 5) and screened for their solubility and activity.
(§1) The enzymes listed in Table 5 were expressed in E. coli, and the clarified lysate was normalized based on the OD600 standard curve and used to screen for activity. To the clarified lysate was added 50 mM Tris pH 7.5, 1 mM GDP-L-fucose, and 80 mM lactose, and the reactions were quenched by heating at 99° C. for 10 minutes, and analyzed using the 2′-FL HPLC method.

[7] = Activity comparison of purified FutC enzymes; format: biochemical; conditions: 2 mM GDP-L-fucose, 40 mM lactose, 0.5 mg/mL FutC
Description: An assay was performed to compare the activity of the ASR11 and ASR12 enzymes to the activity of the parent construct, FutC #5 (SEQ ID NO: 29) and Helicobacter pylori FutC (HpFutC, SEQ ID NO: 61), an enzyme commonly used for 2′-FL production. Specifically, the assay conditions were: 2 mM GDP-L-fucose, 40 mM lactose, 50 mM Tris pH 7.5, and 0.5 mg/mL FutC.

[8] = ASR library activity screen in clarified E. coli lysate; format: biochemical; conditions: 1 mM GDP-L-fucose, 80 mM lactose
Description: as §1

[9] = In vitro enzyme cascade converting L-galactose to 2′-FL; format: biochemical; conditions: 10 mM L-galactose, 0.2 g/L FutC, quenched at 3 hours and 22 hours
Description: The reaction conditions were: 50 mM Tris pH 7.5, 10 mM L-galactose, 2 mM ATP, 2 mM GTP, 25 mM acetyl phosphate, 5 mM magnesium chloride, 5 mM potassium chloride, 0.15 mM NADP^+, 0.5 mM NADPH, 40 mM lactose, 0.23 g/L […] (FKP, SEQ ID NO: 1), 0.06 g/L an acetate kinase for the ATP recycling system (Gs Ack, SEQ ID NO: 65), 0.3 g/L At GMD (SEQ ID NO: 79), 0.75 g/L WcaG (SEQ ID NO: 7) and 0.2 g/L ASR 12 (SEQ ID NO: 109). The reactions were quenched by heating at 99° C. […] and analyzed using the 2′-FL LC-MS method.

At GME: GDP-mannose-3,5-epimerase from Arabidopsis thaliana, SEQ ID NO: 3
GDP-mannose-3,5-epimerase activity [1]: higher activity than Os GME

B1: FutC 18: α-1,2-fucosyltransferase candidate from Rhizobiales bacterium, SEQ ID NO: 55 (protein, listed as Rhizobiales bacterium)
chain: MIVTRIVGGLGNQMFQYAVGRALSAKTGQEFKLDLSEMDRYKVHALQLDQFNIKGVRAGRHEIPFRPRKSFFGKILTALKNRNRIPQVFETTPSFDPSVLQRKGSCYLSGYWQSEKYFSDCSELIRADFSLKGPMSDERQAVLSQIRDAEAPVSVHVRRGDYVTNTTANSIHGTCEPEWYRQAMRKISDRTGDPTFFVFSDDPMWARSNLPTYEKMVFVEPRADGKDAEDMHLMSSCQSHIIANSTFSWWGAWLNPRQDKRVIAPARWFRAEDRDSTDLVPAQWERL
α-1,2-fucosyltransferase activity for 2′-FL production [2]: have α-1,2-fucosyltransferase activity for 2′-FL production

B2: FKP: fucokinase/guanylyltransferase from Bacteroides fragilis, SEQ ID NO: 1 (protein, listed as Bacteroides fragilis)
chain: MQKLLSLPPNLVQSFHELERVNRTDWFCTSDPVGKKLGSGGGTSWLLEECYNEYSDGATFGEWLEKEKRILLHAGGQSRRLPGYAPSGKILTPVPVFRWERGQHLGQNLLSLQLPLYEKIMSLAPDKLHTLIASGDVYIRSEKPLQSIPEADVVCYGLWVDPSLATHHGVFASDRKHPEQLDFMLQKPSLAELESLSKTHLFLMDIGIWLLSDRAVEILMKRSHKESSEELKYYDLYSDFGLALGTHPRIEDEEVNTLSVAILPLPGGEFYHYGTSKELISSTLSVQNKVYDQRRIMHRKVKPNPAMFVQNAVVRIPLCAENADLWIENSHIGPKWKIASRHIITGVPENDWSLAVPAGVCVDVVPMGDKGFVARPYGLDDVFKGDLRDSKTTLTGIPFGEWMSKRGLSYTDLKGRTDDLQAASVFPMVNSVEELGLVLRWMLSEPELEEGKNIWLRSERFSADEISAGANLKRLYAQREEFRKGNWQALAVNHEKSVFYQLDLADAAEDFVRLGLDMPELLPEDALQMSRIHNRMLRARILKLDGKDYRPEEQAAFDLLRDGLLDGISNRKSTPKLDVYSDQIVWGRSPVRIDMAGGWTDTPPYSLYSGGNVVNLAIELNGQPPLQVYVKPCKDFHIVLRSIDMGAMEIVSTFDELQDYKKIGSPFSIPKAALSLAGFAPAFSAVSYASLEEQLKDFGAGIEVTLLAAIPAGSGLGTSSILASTVLGAINDFCGLAWDKNEICQRTLVLEQLLTTGGGWQDQYGGVLQGVKLLQTEAGFAQSPLVRWLPDHLFTHPEYKDCHLLYYTGITRTAKGILAEIVSSMFLNSSLHLNLLSEMKAHALDMNEAIQRGSFVEFGRLVGKTWEQNKALDSGTNPPAVEAIIDLIKDYTLGYKLPGAGGGGYLYMVAKDPQAAVRIRKILTENAPNPRARFVEMTLSDKGFQVSRS
conversion of L-galactose to GDP-L-galactose ([3]; 2 mM L-galactose, 0.25 g/L FKP, room temperature overnight, LC-MS): catalyzes the conversion of L-galactose to GDP-L-galactose | final titer of GDP-L-galactose ([3]; 5 mM L-galactose, 0.8 mg/mL FKP, PEP/pyruvate kinase regeneration, 37° C., 44 hours): 2.5 g/L

B3: FutC13: α-1,2-fucosyltransferase candidate from Candidatus Brocadia sapporoensis, SEQ ID NO: 45 (protein)
chain: MQLKRWPQLKPTDAAVFGSGKQTIMIIVKLMGGLGNQMFQYAAGRRLAEKLGVKLKLDIEMFKDNTLRKYELGAFNIQECFAAVEEIERLTVVKRGIVEKALDRVFKRPIRRPGGYVAEKYFVFDPSILQLPDQVYLDGYWQSEKYFAEIETIIREEFTIKYPQTDKNKVLSDSIKSGNSVTVHVRRGDYVNNPETNSLHGVCGIDYYQRCIDFIITKIANPHFFFFSDDPEWVKNNLKIKYESTVVEHNGAEKCYEDLRLLSQGKYHIIANSTFSWWGAWLNKNPEKMVVAPEKWFKKEDVNTKGFIPEDWIRL
modifications: Candidatus Brocadia sapporoensis
α-1,2-fucosyltransferase activity for 2′-FL production [2]: have α-1,2-fucosyltransferase activity for 2′-FL production

B4: At WT: GDP-mannose-4,6-dehydratase from Arabidopsis thaliana, wild type, SEQ ID NO: 5 (protein, listed as Arabidopsis thaliana)
chain: MASENNGSRSDSESITAPKADSTVVEPRKIALITGITGQDGSYLTEFLLGKGYEVHGLIRRSSNFNTQRINHIYIDPHNVNKALMKLHYADLTDASSLRRWIDVIKPDEVYNLAAQSHVAVSFEIPDYTADVVATGALRLLEAVRSHTIDSGRTVKYYQAGSSEMFGSTPPPQSETTPFHPRSPYAASKCAAHWYTVNYREAYGLFACNGILFNHESPRRGENFVTRKITRALGRIKVGLQTKLFLGNLQASRDWGFAGDYVEAMWLMLQQEKPDDYVVATEEGHTVEEFLDVSFGYLGLNWKDYVEIDQRYFRPAEVDNLQGDASKAKEVLGWKPQVGFEKLVKMMVDEDLELAKREKVLVDAGYMDAKQQP
dehydratase activity towards GDP-L-galactose ([4]; 5 mM GDP-L-Gal, 2.4 g/L At Gmd, 3.2 g/L Ec WcaG, 16 hours, 37° C.): has dehydratase activity towards GDP-L-galactose | initial dehydratase activity ([4]; among four potential dehydratases screened): highest initial activity | decrease in activity [5]: 95%

B5: ASR 12: FutC mutant from ancestral sequence reconstruction, SEQ ID NO: 109 (protein)
chain: MIIIRMSGGLGNQMFQYALYRKLKSMGKEVKIDDITGYEDDNQRSIMLDVFGIDYDKATKEEITKLTDSSMDFLSRIRRKLFGRKSKEYQEEDFNFDPQVLEMDDAYLEGYFQSEKYFQDVREQLRKEFTFRKNSVPELSEQTKELRKQIENSNSVSIHIRRGDYLENSHAEIYGGICTDDYYKKAIEYMKEKFPDAKFYIFSNDIEWAKQHFKGENFVIVDASEENTGYADMYLMSKCKHHIIANSSFSWWGAWLNDNPEKIVIAPSKWLNNKECKDIYTDRMIKIDAKGEVRSEDYGVRTNSTVK
modifications: ASR12
solubility compared to the rest of the ASR library [6]: improved | FutC activity compared to Hp FutC and parent FutC 5 [7]: outperformed Hp FutC as well as the parent construct | activity compared to the rest of the ASR library [8]: improved | 2′-FL production compared to FutC #5 and Hp FutC [9]: significantly higher
